Measured values taken from article PMC3226482 (Molecular Biology of the Cell, 2011).

Target: T1, karyopherin β2 (human, UniProt Q92973 1-898)
T1 sequence: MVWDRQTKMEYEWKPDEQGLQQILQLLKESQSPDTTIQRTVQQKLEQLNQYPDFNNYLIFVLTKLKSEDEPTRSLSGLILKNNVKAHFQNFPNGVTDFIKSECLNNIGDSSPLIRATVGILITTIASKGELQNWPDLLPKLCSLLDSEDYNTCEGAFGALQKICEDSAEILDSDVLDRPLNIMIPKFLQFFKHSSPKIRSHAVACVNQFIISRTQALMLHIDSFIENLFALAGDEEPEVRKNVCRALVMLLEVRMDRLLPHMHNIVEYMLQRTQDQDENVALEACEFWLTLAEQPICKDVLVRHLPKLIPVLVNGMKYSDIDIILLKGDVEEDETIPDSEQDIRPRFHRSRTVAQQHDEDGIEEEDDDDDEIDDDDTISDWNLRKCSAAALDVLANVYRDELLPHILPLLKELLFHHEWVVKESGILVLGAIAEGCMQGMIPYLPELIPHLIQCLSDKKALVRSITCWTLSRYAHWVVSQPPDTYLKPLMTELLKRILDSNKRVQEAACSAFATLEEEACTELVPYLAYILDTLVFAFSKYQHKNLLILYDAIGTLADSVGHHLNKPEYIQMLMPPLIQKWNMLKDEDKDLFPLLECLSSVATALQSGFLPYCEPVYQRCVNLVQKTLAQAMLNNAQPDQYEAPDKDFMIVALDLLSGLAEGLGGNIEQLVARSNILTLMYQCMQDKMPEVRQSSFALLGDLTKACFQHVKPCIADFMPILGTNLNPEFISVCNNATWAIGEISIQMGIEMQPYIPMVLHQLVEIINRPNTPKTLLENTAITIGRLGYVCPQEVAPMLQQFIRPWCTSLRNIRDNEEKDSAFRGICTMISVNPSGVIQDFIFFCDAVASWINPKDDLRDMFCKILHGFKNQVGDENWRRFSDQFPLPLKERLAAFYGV
Assay: ITC

B1: hsNXF1 fragment, residues 1-92 (domain or fragment)
chain: MADEGKSYSEHDDERVNFPQRKKKGRGPFRWKYGEGNRRSGRGGSGIRSSRLEEDDGDVAMSDAQDGPRVRYNPYTTRPNRRGDTWHDRDRI
  Kd: 54 nM
